Test results taken from patent publication US20240301071A1 (Alector, published 2024).

What was measured:
[1] = target: T1, human SIRPA on human macrophages (primary monocyte-derived macrophages; U937 line) (human, UniProt P78324 31-504); experiment: cell-based or functional assay
soluble human FcgR2B = target: T2, soluble human FcgR2B (human, UniProt P31994 46-217); experiment: BLI (Octet RED96), antibody captured by anti-human Fab-CH1, 100 nM soluble human FcR
T2 construct: also called CD32B
T2 sequence (looked up): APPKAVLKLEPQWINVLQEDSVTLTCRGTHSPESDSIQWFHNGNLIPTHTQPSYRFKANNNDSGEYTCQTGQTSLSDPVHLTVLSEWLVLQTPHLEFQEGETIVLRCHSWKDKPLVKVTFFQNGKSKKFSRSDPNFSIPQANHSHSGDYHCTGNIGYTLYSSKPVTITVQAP
Experimental: (§1) FcR affinity measurements for anti-SIRPA antibody Fc variants were obtained using bio-layer interferometry (BLI) on a Pall ForteBio Octet RED96 instrument. […] Single cycle kinetics were performed with 100 nM of soluble human FcRs flowed over captured antibody to record traces (300 s association time, 300 s dissociation time). Data analysis was performed using ForteBio Data Analysis Software, version 9.0. Standard kinetic buffer (PBS, 0.1% BSA, 0.02% Tween-20, pH 7.2) was used for the assay and for preparing reagents.

[2] = target: T3, soluble human FcgR2A R131 (human, UniProt P12318 36-218); experiment: as above
T3 construct: also called CD32A-R131
T3 sequence (looked up): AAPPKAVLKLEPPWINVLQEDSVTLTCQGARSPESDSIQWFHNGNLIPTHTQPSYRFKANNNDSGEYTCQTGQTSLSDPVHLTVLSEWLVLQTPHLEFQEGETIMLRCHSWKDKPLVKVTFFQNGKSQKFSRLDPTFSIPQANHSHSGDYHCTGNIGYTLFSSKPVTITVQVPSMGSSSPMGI
Experimental: as §1

soluble human FcgR1 = target: T4, soluble human FcgR1 (human, UniProt P12314 16-288); experiment: as above
T4 construct: also called FcγRI; CD64
T4 sequence (P12314 16-288 limits assumed): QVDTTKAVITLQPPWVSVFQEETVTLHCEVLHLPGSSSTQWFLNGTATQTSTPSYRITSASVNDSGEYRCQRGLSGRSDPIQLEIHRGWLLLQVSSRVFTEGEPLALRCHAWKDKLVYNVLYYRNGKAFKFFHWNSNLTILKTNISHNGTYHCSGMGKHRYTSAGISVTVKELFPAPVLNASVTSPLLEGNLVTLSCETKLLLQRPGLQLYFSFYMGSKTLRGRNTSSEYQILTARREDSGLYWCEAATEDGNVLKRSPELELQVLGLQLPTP
Experimental: as §1

[3] = target: T5, soluble human FcgR2A H131 (human, UniProt P12318 36-218); experiment: as above
T5 construct: also called CD32A-H131
T5 sequence (looked up): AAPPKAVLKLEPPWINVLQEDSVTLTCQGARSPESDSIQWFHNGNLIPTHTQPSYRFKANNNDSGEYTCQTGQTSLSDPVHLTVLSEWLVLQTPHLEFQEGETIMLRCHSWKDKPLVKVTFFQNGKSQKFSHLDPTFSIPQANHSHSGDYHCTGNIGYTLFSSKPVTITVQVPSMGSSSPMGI
Experimental: as §1

[4] = target: T1, human SIRPA on human macrophages …; experiment: cell-based or functional assay; remark: listed apart in the source
[5] = target: T6, soluble human FcgR3A F158 (human, UniProt P08637 17-208); experiment: BLI (Octet RED96), antibody captured by anti-human Fab-CH1, soluble human FcR
T6 construct: also called CD16A F158
T6 sequence (P08637 17-208 limits assumed): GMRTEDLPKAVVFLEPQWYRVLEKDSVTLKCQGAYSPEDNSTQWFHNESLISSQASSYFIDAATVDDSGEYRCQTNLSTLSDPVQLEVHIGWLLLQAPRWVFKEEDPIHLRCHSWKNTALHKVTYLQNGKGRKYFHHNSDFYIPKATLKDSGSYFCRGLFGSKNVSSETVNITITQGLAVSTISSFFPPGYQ
Experimental: as §1

[6] = target: T7, soluble human FcgR3A V158 (human, UniProt P08637 17-208); experiment: as above
T7 construct: also called CD16A V158
T7 sequence (P08637 17-208 F176V limits assumed): as the sequence (P08637 17-208 limits assumed) above, with F160V counted along it
Experimental: as §1

[7] = target: T1, human SIRPA on human macrophages …; experiment: cell-based or functional assay; remark: listed apart in the source
[8] = target: T1, human SIRPA on human macrophages …; experiment: cell-based or functional assay; remark: listed apart in the source
[9] = target: T8, histidine-tagged human SIRPA (Sino Biological) (human, UniProt P78324 31-370); experiment: BLI (Octet RED96), antibody captured on anti-human IgG Fc sensor, His-tagged SIRPA in solution, 1:1 model
T8 construct: bought, soluble; also called histidine-tagged huSIRPA isoform 1; soluble SIRPA antigen; not shown: histidine tag
T8 sequence (P78324 31-370 limits assumed): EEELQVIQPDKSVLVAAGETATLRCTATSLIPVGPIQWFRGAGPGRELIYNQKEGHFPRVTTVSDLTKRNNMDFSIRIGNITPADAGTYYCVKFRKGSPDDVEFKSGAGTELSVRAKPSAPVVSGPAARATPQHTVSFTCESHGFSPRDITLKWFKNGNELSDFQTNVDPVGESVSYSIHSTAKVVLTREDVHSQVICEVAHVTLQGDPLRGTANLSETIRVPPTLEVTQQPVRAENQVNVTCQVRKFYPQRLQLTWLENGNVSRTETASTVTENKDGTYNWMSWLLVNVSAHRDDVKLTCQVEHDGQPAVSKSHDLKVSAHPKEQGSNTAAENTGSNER
Experimental: Affinity measurements for the anti-SIRPA antibodies were performed as follows. Bio-layer interferometry (BLI) data were collected on a Pall ForteBio Octet RED96 instrument. Data analysis was performed using ForteBio Data Analysis Software, version 9.0. Standard kinetic buffer (PBS, 0.100 BSA, 0.02% Tween-20, pH 7.2) was used for the assay and for preparing reagents. […] Varying concentrations (0-200 nM) of histidine-tagged human SIRPA (Sino Biological, Beijing, China) were then bound to the captured anti-SIRPA surface (300 s association time, 600 s dissociation time). The resulting BLI signal was obtained as the difference in response from the reference (2.5 μg/mL IgG+0 nM SIRPA) sensor. […] Multi-concentration kinetic analysis was performed using a 1:1 interaction model to extract association and dissociation rate constants (ka and kd, respectively) for each antibody. Binding affinity constants (KD) were calculated from the ratio kd/ka.
Best-fit traces from the resulting sensorgrams were analyzed to calculate association rate, dissociation rate, and affinity values.

[10] = target: T9, human SIRPA v1 on BWZ cells (BWZ-huSIRPA) (human, UniProt P78324 31-504); experiment: flow cytometry competition on BWZ-huSIRPA v1 cells, competitor: fluorophore-labelled reference m3F9
T9 construct: also called BWZ cells overexpressing human SIRPA; BWZ-huSIRPA v1 cells
T9 sequence (P78324 31-504): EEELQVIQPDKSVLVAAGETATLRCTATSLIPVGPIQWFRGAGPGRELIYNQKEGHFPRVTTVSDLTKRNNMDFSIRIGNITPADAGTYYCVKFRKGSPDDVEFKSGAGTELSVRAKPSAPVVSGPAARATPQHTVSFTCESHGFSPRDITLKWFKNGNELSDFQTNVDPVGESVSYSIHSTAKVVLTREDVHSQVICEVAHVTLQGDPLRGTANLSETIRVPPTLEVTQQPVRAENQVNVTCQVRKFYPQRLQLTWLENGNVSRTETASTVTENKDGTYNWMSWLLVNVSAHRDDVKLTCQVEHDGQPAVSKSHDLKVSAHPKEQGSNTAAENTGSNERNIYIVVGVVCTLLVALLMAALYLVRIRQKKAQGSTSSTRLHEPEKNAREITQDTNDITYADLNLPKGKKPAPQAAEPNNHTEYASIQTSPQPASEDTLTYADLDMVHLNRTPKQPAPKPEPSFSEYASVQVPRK
Text: IC50 values provide another comparison of relative affinity.

[11] = target: T9, human SIRPA v1 on BWZ cells …; experiment: flow cytometry titration on BWZ cells overexpressing huSIRPA, 4 C
Experimental: Receptor bound antibodies were detected by staining cells with anti-mouse IgG Fc APC or anti-human IgG PE secondary antibody. Serial dilutions of the monoclonal antibodies were added to 10⁵ BWZ cells overexpressing huSIRPA (BWZ-huSIRPA) and allowed to achieve binding equilibrium at 4° C. After addition of fluorescently labeled secondary antibody and brief washing steps, mean fluorescent intensity (MFI) values as a function of titrated antibody concentration was recorded via FACS analysis. Curves were fit using nonlinear regression analysis with Graphpad Prism 6 software.

[12] = target: human SIRPA R295A (V5-tagged library clone on HEK-293T cells) (human, UniProt P78324 31-504); experiment: flow cytometry of Fab on HEK-293T cells expressing the mutant, normalised to wild-type SIRPA
human SIRPA R295A (V5-tagged library clone on HEK-293T cells), sequence (P78324 31-504 R295A): as the sequence (P78324 31-504) above, with R265A counted along it
Experimental: (§2) Epitope mapping of anti-SIRPA antibodies was performed using an alanine-scanning library created by shotgun mutagenesis of the human SIRPA cDNA sequence. […] Each of the residues representing the SIRPA extracellular domain (amino acids 31-374 of SEQ ID NO:1) was mutated, most to alanine, while alanine codons were mutated to serine.
(§3) The SIRPA mutant library clones, arrayed in a 384-well microplate, were transfected individually into HEK-293T cells and allowed to express for 22 hours. Antibodies were digested to generate Fabs, after which cells were incubated with Fabs diluted in 10% normal goat serum (NGS) (Sigma-Aldrich, St. Louis, MO). Prior to library screening, primary Fab concentrations were determined using an independent immunofluorescence titration curve against cells expressing wild type SIRPA to ensure that signals were within the linear range of detection. Fabs were detected using 7.5 μg/ml AlexaFluor488-conjugated secondary antibody (Jackson ImmunoResearch Laboratories, Westgrove, PA) in 10% NGS. Cells were washed twice with PBS and resuspended in Cellstripper (Cellgro, Manassas, VA) with 0.1% BSA (Sigma-Aldrich, St. Louis, MO). In some cases, higher stringency conditions were used, including increased pH, increased temperature, and increased dissociation time. Mean cellular fluorescence was detected using the Intellicyt high throughput flow cytometer (HTFC, Intellicyt, Albuquerque, NM). Fab reactivities against each mutant clone were calculated relative to wild-type SIRPA protein reactivity by subtracting the signal from mock-transfected controls, and normalizing to the signal from wild-type SIRPA transfected controls.

[13] = target: human SIRPA W315A (V5-tagged library clone on HEK-293T cells) (human, UniProt P78324 31-504); experiment: as above
human SIRPA W315A (V5-tagged library clone on HEK-293T cells), sequence (P78324 31-504 W315A): as the sequence (P78324 31-504) above, with W285A counted along it
Experimental: as §2, §3

[14] = target: human SIRPA Q284A (V5-tagged library clone on HEK-293T cells) (human, UniProt P78324 31-504); experiment: as above
human SIRPA Q284A (V5-tagged library clone on HEK-293T cells), sequence (P78324 31-504 Q284A): as the sequence (P78324 31-504) above, with Q254A counted along it
Experimental: as §2, §3

[15] = target: human SIRPA L285A (V5-tagged library clone on HEK-293T cells) (human, UniProt P78324 31-504); experiment: as above
human SIRPA L285A (V5-tagged library clone on HEK-293T cells), sequence (P78324 31-504 L285A): as the sequence (P78324 31-504) above, with L255A counted along it
Experimental: as §2, §3

[16] = target: human SIRPA R282A (V5-tagged library clone on HEK-293T cells) (human, UniProt P78324 31-504); experiment: as above
human SIRPA R282A (V5-tagged library clone on HEK-293T cells), sequence (P78324 31-504 R282A): as the sequence (P78324 31-504) above, with R252A counted along it
Experimental: as §2, §3

[17] = target: human SIRPA V302A (V5-tagged library clone on HEK-293T cells) (human, UniProt P78324 31-504); experiment: as above
human SIRPA V302A (V5-tagged library clone on HEK-293T cells), sequence (P78324 31-504 V302A): as the sequence (P78324 31-504) above, with V272A counted along it
Experimental: as §2, §3

[18] = target: human SIRPA W287A (V5-tagged library clone on HEK-293T cells) (human, UniProt P78324 31-504); experiment: as above
human SIRPA W287A (V5-tagged library clone on HEK-293T cells), sequence (P78324 31-504 W287A): as the sequence (P78324 31-504) above, with W257A counted along it
Experimental: as §2, §3

[19] = target: human SIRPA G337A (V5-tagged library clone on HEK-293T cells) (human, UniProt P78324 31-504); experiment: as above
human SIRPA G337A (V5-tagged library clone on HEK-293T cells), sequence (P78324 31-504 G337A): as the sequence (P78324 31-504) above, with G307A counted along it
Experimental: as §2, §3

[20] = target: human SIRPA E297A (V5-tagged library clone on HEK-293T cells) (human, UniProt P78324 31-504); experiment: as above
human SIRPA E297A (V5-tagged library clone on HEK-293T cells), sequence (P78324 31-504 E297A): as the sequence (P78324 31-504) above, with E267A counted along it
Experimental: as §2, §3

[21] = target: human SIRPA Q281A (V5-tagged library clone on HEK-293T cells) (human, UniProt P78324 31-504); experiment: as above
human SIRPA Q281A (V5-tagged library clone on HEK-293T cells), sequence (P78324 31-504 Q281A): as the sequence (P78324 31-504) above, with Q251A counted along it
Experimental: as §2, §3

T1 sequence (P78324 31-370): as the sequence (P78324 31-370 limits assumed) above

B1: 3F9-22 hIgG1 NSLF (antibody)
heavy: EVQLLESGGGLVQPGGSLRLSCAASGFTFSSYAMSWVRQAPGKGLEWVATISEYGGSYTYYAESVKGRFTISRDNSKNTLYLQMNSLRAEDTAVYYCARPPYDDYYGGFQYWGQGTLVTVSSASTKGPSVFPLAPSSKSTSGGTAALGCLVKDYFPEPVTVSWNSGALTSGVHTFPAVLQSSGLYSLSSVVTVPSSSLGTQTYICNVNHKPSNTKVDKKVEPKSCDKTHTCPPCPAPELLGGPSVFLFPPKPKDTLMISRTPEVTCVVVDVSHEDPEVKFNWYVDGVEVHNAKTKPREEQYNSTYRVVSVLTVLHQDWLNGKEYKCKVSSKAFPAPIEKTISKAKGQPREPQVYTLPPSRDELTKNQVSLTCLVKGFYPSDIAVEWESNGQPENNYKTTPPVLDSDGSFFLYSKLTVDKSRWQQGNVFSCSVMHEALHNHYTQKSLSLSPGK
light: DIQLTQSPSSLSASVGDRVTITCRASKSVSSGGYSYMHWYQQKPGKAPKLLIYLASNLESGVPSRFSGSGSGTDFTLTISSVQPEDFATYYCQHNRELPVTFGQGTKLEIKRTVAAPSVFIFPPSDEQLKSGTASVVCLLNNFYPREAKVQWKVDNALQSGNSQESVTEQDSKDSTYSLSSTLTLSKADYEKHKVYACEVTHQGLSSPVTKSFNRGEC
notes: also called 3F9-22 NSLF; 3F9-22NSLF
IC50 (nM), SIRPA downregulation on human monocyte-derived macrophages [1]: 0.0451 nM | Max % DR, SIRPA, human monocyte-derived macrophages [1]: 74.6% | binding result (soluble human FcgR2B): binds | binding result [2]: binds | binding result (soluble human FcgR1): binds | binding result [3]: binds | EC50 (nM), phagocytosis of A375 cells by primary human macrophages [4]: 0.458 nM | Max, fold increase in phagocytosis over baseline activity [4]: 1.77 fold | binding result [5]: no binding (tested: 100 nM) | binding result [6]: no binding (tested: 100 nM)

B2: 3F9-22 SELF (antibody, human IgG1, kappa)
heavy chain: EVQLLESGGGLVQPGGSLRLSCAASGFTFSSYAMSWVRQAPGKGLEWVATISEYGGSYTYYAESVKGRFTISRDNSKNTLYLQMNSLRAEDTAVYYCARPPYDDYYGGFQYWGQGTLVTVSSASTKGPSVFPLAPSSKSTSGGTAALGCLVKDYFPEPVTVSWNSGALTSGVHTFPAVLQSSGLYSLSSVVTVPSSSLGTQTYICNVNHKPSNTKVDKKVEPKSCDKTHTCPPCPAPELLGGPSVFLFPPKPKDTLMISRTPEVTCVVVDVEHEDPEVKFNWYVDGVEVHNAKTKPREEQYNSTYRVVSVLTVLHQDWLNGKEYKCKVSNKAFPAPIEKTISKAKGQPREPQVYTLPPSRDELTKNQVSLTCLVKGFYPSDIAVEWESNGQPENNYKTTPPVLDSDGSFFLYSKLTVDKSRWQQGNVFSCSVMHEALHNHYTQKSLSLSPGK
light chain: DIQLTQSPSSLSASVGDRVTITCRASKSVSSGGYSYMHWYQQKPGKAPKLLIYLASNLESGVPSRFSGSGSGTDFTLTISSVQPEDFATYYCQHNRELPVTFGQGTKLEIKRTVAAPSVFIFPPSDEQLKSGTASVVCLLNNFYPREAKVQWKVDNALQSGNSQESVTEQDSKDSTYSLSSTLTLSKADYEKHKVYACEVTHQGLSSPVTKSFNRGEC
IC50 (read off the curve), SIRPA downregulation on primary human macrophages, Dnr. 517 [7]: ~0.1 nM

B3: mAb 14.70.1 (antibody, human IgG4, V domains shown)
VH: EVQLLESGGGLVQPGGSLRLSCAASGFTFSSYAMSWVRQAPGKGLEWVSTISDYGGSYTYYADSVKGRFTISRDNSKNTLYLQMNSLRAEDTAVYYCAKPPYDDYYGGFAYWGQGTLVTVSS
VL: DIQMTQSPSSLSASVGDRVTITCRASKSVSSSGYSYMHWYQQKPGKAPKLLIYLASNLESGVPSRFSGSGSGTDFTLTISSLQPEDFATYYCQHNRELPCTFGQGTKLEIK
notes: also called h3F9 H1/L1; h3F9 IgG4
IC50 (read off the curve), SIRPA downregulation on primary human macrophages, Dnr 409 [8]: ~0.2 nM | Kd [9]: 19 nM | koff [9]: 0.002 s⁻¹ | kon [9]: 110000 M⁻¹ s⁻¹ | IC50 [10]: 3.3 nM | EC50 [11]: 1.06 nM

B4: 9C2 Fab (Fab, V domains shown)
VH: EFQLQQSGAELVKPGASVKISCKASGYSLTGYNMNWVKQSRGKSLEWIGNINPHYGSSTYNQNFKDKATLTVDKSSSAAYMQFNSLTSEDSAVYYCAREGYDGVFDYWGQGTTLTVSS
VL: QIVLSQSPAILSASPGEKVTMTCRASSSVSYMHWYQQKPGSSPKPWIYVTSNLASGVPTRFSGSGSGTSYSLTISRVEAEDAATYYCQQWSSNPRTFGGGTKLEIK
Binding Reactivity (% WT) [12]: 1.8 % WT | Binding Reactivity (% WT) [13]: 19 % WT | Binding Reactivity (% WT) [14]: 6.5 % WT | Binding Reactivity (% WT) [15]: 17.9 % WT | Binding Reactivity (% WT) [16]: 4.7 % WT | Binding Reactivity (% WT) [17]: 4.9 % WT | Binding Reactivity (% WT) [18]: 2.4 % WT | Binding Reactivity (% WT) [19]: 36.3 % WT | Binding Reactivity (% WT) [20]: 5.3 % WT | Binding Reactivity (% WT) [21]: 14.1 % WT
